The chains are these.
B1: 107_B12 (scFv)
scFv: QMQLVQSGAEVKKPGAPVKVSCKVSGYTFTDYYMHWVQQAPGKGLEWMGLVDPEDGETIYAEKFQGRVTITADTSTDTAYMELSSLRSEDTAVYYCATDATTPYWGMTAWGQGTLVTVSSLEGGGGSGGGGSGGGASDIQMTQSPSSLSASVGDRVTITCQASQDISNYLNWYQQKPGRAPKVLIYDASNLETGVPSRFSGSGSGTEFTLTISNLRPDDFATYYCQQGDSFPLTFGGGTKVEIK
notes: not shown: 6xHis/tri-FLAG tags
B2: 108_C11 (scFv)
scFv: QMQLVQSGAEVKKPGAPVKVSCKVSGYTFTDYYMHWVQQAPGKGLEWMGLVDPEDGETIYAEKFQGRVTITADTSTDTAYMELSSLRSEDTAVYYCATDATTPYWFPIIWGQGTLVTVSSLEGGGGSGGGGSGGGASDIQMTQSPSSLSASVGDRVTITCQASQDISNYLNWYQQKPGRAPKVLIYDASNLETGVPSRFSGSGSGTEFTLTISNLRPDDFATYYCQQGDSFPLTFGGGTKVEIK
notes: as for B1
B3: 107_C6 (scFv)
scFv: QMQLVQSGAEVKKPGAPVKVSCKVSGYTFTDYYMHWVQQAPGKGLEWMGLVDPEDGETIYAEKFQGRVTITADTSTDTAYMELSSLRSEDTAVYYCATDATTPYWGMSVWGQGTLVTVSSLEGGGGSGGGGSGGGASDIQMTQSPSSLSASVGDRVTITCQASQDISNYLNWYQQKPGRAPKVLIYDASNLETGVPSRFSGSGSGTEFTLTISNLRPDDFATYYCQQGDSFPLTFGGGTKVEIK
notes: as for B1
B4: 108_D4 (scFv)
scFv: QMQLVQSGAEVKKPGAPVKVSCKVSGYTFTDYYMHWVQQAPGKGLEWMGLVDPEDGETIYAEKFQGRVTITADTSTDTAYMELSSLRSEDTAVYYCATDATTPYWGMSGWGQGTLVTVSSLEGGGGSGGGGSGGGASDIQMTQSPSSLSASVGDRVTITCQASQDISNYLNWYQQKPGRAPKVLIYDASNLETGVPSRFSGSGSGTEFTLTISNLRPDDFATYYCQQGDSFPLTFGGGTKVEIK
notes: as for B1
B5: 107_C1 (scFv)
scFv: QMQLVQSGAEVKKPGAPVKVSCKVSGYTFTDYYMHWVQQAPGKGLEWMGLVDPEDGETIYAEKFQGRVTITADTSTDTAYMELSSLRSEDTAVYYCATDATTPYWGMSMWGQGTLVTVSSLEGGGGSGGGGSGGGASDIQMTQSPSSLSASVGDRVTITCQASQDISNYLNWYQQKPGRAPKVLIYDASNLETGVPSRFSGSGSGTEFTLTISNLRPDDFATYYCQQGDSFPLTFGGGTKVEIK
notes: as for B1
B6: 107_C5 (scFv)
scFv: QMQLVQSGAEVKKPGAPVKVSCKVSGYTFTDYYMHWVQQAPGKGLEWMGLVDPEDGETIYAEKFQGRVTITADTSTDTAYMELSSLRSEDTAVYYCATDATTPYWYPIVWGQGTLVTVSSLEGGGGSGGGGSGGGASDIQMTQSPSSLSASVGDRVTITCQASQDISNYLNWYQQKPGRAPKVLIYDASNLETGVPSRFSGSGSGTEFTLTISNLRPDDFATYYCQQGDSFPLTFGGGTKVEIK
notes: as for B1
B7: 108_C12 (scFv)
scFv: QMQLVQSGAEVKKPGAPVKVSCKVSGYTFTDYYMHWVQQAPGKGLEWMGLVDPEDGETIYAEKFQGRVTITADTSTDTAYMELSSLRSEDTAVYYCATDATTPYWGMASWGQGTLVTVSSLEGGGGSGGGGSGGGASDIQMTQSPSSLSASVGDRVTITCQASQDISNYLNWYQQKPGRAPKVLIYDASNLETGVPSRFSGSGSGTEFTLTISNLRPDDFATYYCQQGDSFPLTFGGGTKVEIK
notes: as for B1
B8: 108_D3 (scFv)
scFv: QMQLVQSGAEVKKPGAPVKVSCKVSGYTFTDYYMHWVQQAPGKGLEWMGLVDPEDGETIYAEKFQGRVTITADTSTDTAYMELSSLRSEDTAVYYCATDATTPYWFPYVWGQGTLVTVSSLEGGGGSGGGGSGGGASDIQMTQSPSSLSASVGDRVTITCQASQDISNYLNWYQQKPGRAPKVLIYDASNLETGVPSRFSGSGSGTEFTLTISNLRPDDFATYYCQQGDSFPLTFGGGTKVEIK
notes: as for B1
B9: 108_D1 (scFv)
scFv: QMQLVQSGAEVKKPGAPVKVSCKVSGYTFTDYYMHWVQQAPGKGLEWMGLVDPEDGETIYAEKFQGRVTITADTSTDTAYMELSSLRSEDTAVYYCATDATTPYWTPWKWGQGTLVTVSSLEGGGGSGGGGSGGGASDIQMTQSPSSLSASVGDRVTITCQASQDISNYLNWYQQKPGRAPKVLIYDASNLETGVPSRFSGSGSGTEFTLTISNLRPDDFATYYCQQGDSFPLTFGGGTKVEIK
notes: as for B1
B10: 107_C4 (scFv)
scFv: QMQLVQSGAEVKKPGAPVKVSCKVSGYTFTDYYMHWVQQAPGKGLEWMGLVDPEDGETIYAEKFQGRVTITADTSTDTAYMELSSLRSEDTAVYYCATDATTPYWSPWMWGQGTLVTVSSLEGGGGSGGGGSGGGASDIQMTQSPSSLSASVGDRVTITCQASQDISNYLNWYQQKPGRAPKVLIYDASNLETGVPSRFSGSGSGTEFTLTISNLRPDDFATYYCQQGDSFPLTFGGGTKVEIK
notes: as for B1
B11: 107_C2 (scFv)
scFv: QMQLVQSGAEVKKPGAPVKVSCKVSGYTFTDYYMHWVQQAPGKGLEWMGLVDPEDGETIYAEKFQGRVTITADTSTDTAYMELSSLRSEDTAVYYCATDATTPYWGMVKWGQGTLVTVSSLEGGGGSGGGGSGGGASDIQMTQSPSSLSASVGDRVTITCQASQDISNYLNWYQQKPGRAPKVLIYDASNLETGVPSRFSGSGSGTEFTLTISNLRPDDFATYYCQQGDSFPLTFGGGTKVEIK
notes: as for B1
B12: 108_C8 (scFv)
scFv: QMQLVQSGAEVKKPGAPVKVSCKVSGYTFTDYYMHWVQQAPGKGLEWMGLVDPEDGETIYAEKFQGRVTITADTSTDTAYMELSSLRSEDTAVYYCATDATTPYWFPYIWGQGTLVTVSSLEGGGGSGGGGSGGGASDIQMTQSPSSLSASVGDRVTITCQASQDISNYLNWYQQKPGRAPKVLIYDASNLETGVPSRFSGSGSGTEFTLTISNLRPDDFATYYCQQGDSFPLTFGGGTKVEIK
notes: as for B1
B13: 108_D2 (scFv)
scFv: QMQLVQSGAEVKKPGAPVKVSCKVSGYTFTDYYMHWVQQAPGKGLEWMGLVDPEDGETIYAEKFQGRVTITADTSTDTAYMELSSLRSEDTAVYYCATDATTPYWAPWVWGQGTLVTVSSLEGGGGSGGGGSGGGASDIQMTQSPSSLSASVGDRVTITCQASQDISNYLNWYQQKPGRAPKVLIYDASNLETGVPSRFSGSGSGTEFTLTISNLRPDDFATYYCQQGDSFPLTFGGGTKVEIK
notes: as for B1
B14: 108 E2 (scFv)
scFv: QMQLVQSGAEVKKPGAPVKVSCKVSGYTFTDYYMHWVQQAPGKGLEWMGLVDPEDGETIYAEKFQGRVTITADTSTDTAYMELSSLRSEDTAVYYCATDATTPYWTPWVWGQGTLVTVSSLEGGGGSGGGGSGGGASDIQMTQSPSSLSASVGDRVTITCQASQDISNYLNWYQQKPGRAPKVLIYDASNLETGVPSRFSGSGSGTEFTLTISNLRPDDFATYYCQQGDSFPLTFGGGTKVEIK
notes: as for B1

The target in the test is T1, MET928 (cMET protein derived from construct 25-928) (human, UniProt P08581 25-928).
T1 construct: MET ectodomain, residues 1-24 are the leader; produced in Lec 8 cells; background text says the ectodomain is furin-cleaved into alpha (25-307) and beta chains; biotinylated form used in selections; also called MET928 extracellular domain; Met extracellular domain
T1 sequence (P08581 25-928): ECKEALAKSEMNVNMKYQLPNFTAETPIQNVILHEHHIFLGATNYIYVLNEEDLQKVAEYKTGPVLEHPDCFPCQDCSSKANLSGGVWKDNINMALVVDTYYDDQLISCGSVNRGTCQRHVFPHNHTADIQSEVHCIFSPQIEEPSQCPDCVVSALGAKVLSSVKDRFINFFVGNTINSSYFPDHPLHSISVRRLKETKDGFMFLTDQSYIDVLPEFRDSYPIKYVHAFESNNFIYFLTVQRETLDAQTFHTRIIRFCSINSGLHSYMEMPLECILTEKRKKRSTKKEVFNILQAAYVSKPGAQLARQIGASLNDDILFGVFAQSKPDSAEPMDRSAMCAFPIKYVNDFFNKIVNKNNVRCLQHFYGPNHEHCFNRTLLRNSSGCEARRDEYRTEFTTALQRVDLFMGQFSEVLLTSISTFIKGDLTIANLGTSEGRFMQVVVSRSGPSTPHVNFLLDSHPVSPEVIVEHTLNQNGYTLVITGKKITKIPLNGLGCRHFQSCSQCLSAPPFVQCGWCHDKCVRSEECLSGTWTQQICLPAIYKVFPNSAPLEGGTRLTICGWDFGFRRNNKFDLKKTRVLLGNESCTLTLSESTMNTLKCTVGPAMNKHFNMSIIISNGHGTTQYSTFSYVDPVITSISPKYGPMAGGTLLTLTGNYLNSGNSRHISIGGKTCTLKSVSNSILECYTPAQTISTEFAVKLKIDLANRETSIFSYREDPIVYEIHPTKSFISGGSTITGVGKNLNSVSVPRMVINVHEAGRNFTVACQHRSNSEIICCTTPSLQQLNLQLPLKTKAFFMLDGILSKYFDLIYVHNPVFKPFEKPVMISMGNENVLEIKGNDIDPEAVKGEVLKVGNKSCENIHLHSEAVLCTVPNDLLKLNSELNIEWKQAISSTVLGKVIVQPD
Description: ELISA, soluble scFv.
Take B1: the binding result is listed as “binds”. In the case of B2 it was “binds”. Turning to B3, the binding result is recorded as “binds”. In the case of B4 it was “binds”.

Take B5: the binding result is recorded as “binds”.

With B6, the binding result is given as “binds”. On to B7, for which the binding result is reported as “binds”. For the molecule B8, the binding result is reported as “binds”. As to B9, the binding result is “binds”. Turning to B10, the binding result was “binds”. In the case of B11 it was “binds”. Consider B12, for which the binding result is “binds”. Consider B13, for which the binding result is “binds”.

With B14, the binding result is “binds”.

Source of the values: patent US20150147274A1 (CANCER RESEARCH TECHNOLOGY, published 2015).
